Legend:
[1] = system: reporter GFP through pCadBA promoter; assay: Activation of CadC transcriptional factor by periplasmic GCN4 domain oligomerization, GFP reporter, flow cytometry; type: cell-based, E. coli; settings: compared to construct without GCN4; 1 mM IPTG
Excerpt: CadC and LexA transcriptional factor DNA binding domain, Leucine zipper GCN4, VHHcafe and VHHRNase were synthesized by INTEGRATED DNA TECHNOLOGIES® (IDT®). Different DNA components such as GFP reporter, CadBA promoter, pLexA promoter and CadC variants were constructed into BIOBRICK® standard vector pSB4K5 by Gibson assembly methods. The resulting constructs were transformed into E. coli strain NEB®10beta (NEW ENGLAND BIOLABS®, NEB®) and determined their performance. In all constructs, the expression level of CadC variants are under the control of pLac-1 promoter, which can be induced by IPTG. The CadC variants control the expression of reporter GFP through pCadBA promoter.
Pick a single colony of CadC operating unit variant into 3 mL of LB/kanamycin medium and incubate in 37° C. overnight with vigorous shaking. The overnight culture is further diluted 100 fold into 3 mL of LB/kanamycin medium and incubated in 37° C. for 4 hours to reach to exponential phase (O.D=0.4˜0.6). […] The resulting cell culture was further analyzed with ATTUNE® NxT flow cytometer. […]

[2] = system: Green Fluorescent Protein (GFP) driven by the LexA promoter; type: cell-based, E. coli; settings: different IPTG concentrations
Excerpt: In order to prevent interference from endogenous E. coli LexA, we used the mutant LexA-408, and its corresponding promoter which is not recognized by the wild type LexA. We fused LexA DBD to a monomeric LBD that undergoes ligand-induced homodimerization. Thus, in the presence of ligand, LexA DBD should be able to bind DNA and repress target gene expression.
We used a single-domain VHH camelid antibody that can be dimerized upon binding to its ligand caffeine (termed VHH-Caffeine from herein). As a negative control we chose a VHH targeting RNase A (termed VHH-Control from herein).
Detection of caffeine using a LexA-VHH fusion. We built two chimeric proteins, expressed in E. coli cytoplasm, composed of an N-terminal LexA DBD and a C-terminal VHH, and placed their expression under the control of the pLacO1 promoter induced by isopropyl β-D-1-thiogalactopyranoside (IPTG). As a reporter, we used the Green Fluorescent Protein (GFP) driven by the LexA promoter. As positive and negative controls, we expressed full-length LexA and LexA DBD. […] We then characterized the behavior of cells expressing LexAVHH-Caffeine and LexA-VHH-Control in response to increasing concentrations of IPTG and caffeine (data not shown). […] We then monitored the response of the LexA-VHH fusions to increasing concentrations of caffeine at different IPTG concentrations. […] We calculated the fold repression of LexA-VHH-Caffeine.

B1: CadC-wtTM-GCN4: CadC DNA binding domain, wild type CadC transmembrane region, C-terminal autodimerization leucine zipper GCN4 (protein)
chain: MQQPVVRVGEWLVTPSINQISRNGRQLTLEPRLIDLLVFFAQHSGEVLSRDELIDNVWKRSIVTNHVVTQSISELRKSLKDNDEDSPVYIATVPKRGYKLMVPVIWYSEEEGEEIMLSSPPPIPEAVPATDSPSHSLNIQNTATPPEQSPVKSKRFTTFWVWFFFLLSLGICVALVAFSSLDTRLPMLEDKVEELLSKNYHLENEVARL
fold activation of downstream reporter gene (GFP) expression [1]: 50 fold

B2: full-length LexA: full-length LexA transcriptional repressor, positive control (protein, UniProt P0A7C2 1-202, looked up)
chain: MKALTARQQEVFDLIRDHISQTGMPPTRAEIAQRLGFRSPNAAEEHLKALARKGVIEIVSGASRGIRLLQEEEEGLPLVGRVAAGEPLLAQQHIEGHYQVDPSLFKPNADFLLRVSGMSMKDIGIMDGDLLAVHKTQDVRNGQVVVARIDDEVTVKRLKKQGNKVELLPENSEFKPIVVDLRQQSFTIEGLAVGVIRNGDWL
modifications: full-length
notes: full-length LexA transcriptional repressor, positive control
response to increasing concentrations of caffeine [2]: not affected by caffeine

— US12517124B2, “Chimeric receptor for use in whole-cell sensors for detecting analytes of interest” (INSERM (Institut National de la Sante et de la Recherche …, priority 2017, dated 2026)
